# Test results as given in patent publication US20100029568A1, “TIGHTER-BINDING C-PEPTIDE INHIBITORS OF HIV-1 ENTRY” (priority 2007, published 2010).
# What was measured:
# [1] = target: wild type Env (gp120/gp41) from HIV-1 strain HXB2 (HIV-1 strain HXB2) (UniProt P04578); assay: cell-based or functional assay
# [2] = target: Res 4 (SDTV) Env from HIV-1 strain HXB2 (HIV-1 strain HXB2) (UniProt P04578); assay: cell-based or functional assay
substance,measurement,setting,value
T20 (peptide),"IC50, nM; inhibitory potency against pseudotyped HIV-1",[1],2.3 nM
same,"IC50, nM; inhibitory potency against pseudotyped HIV-1",[2],900 nM
